Assay results published in US20050054024.

System: T1, 7-nitrobenz-2-oxa-1,3-diazole (NBD)-NH-Ser-Phe-Arg4-Lys-amide 2
T1 sequence: SFRRRRK

recombinant human protein kinase C γ
Km (Fluorescence assay): 30 µM | Km (Radioactive assay): 5 µM | kcat (Fluorescence assay): 3.17 s⁻¹ | kcat (Radioactive assay): 3.5 s⁻¹ | kcat/Km (Fluorescence assay): 105000 M⁻¹ s⁻¹ | kcat/Km (Radioactive assay): 700000 M⁻¹ s⁻¹
